From PMC9352680, “A comprehensive thermodynamic model for RNA binding by the Saccharomyces cerevisiae Pumilio protein PUF4” come the findings set out here.

Positions count from the first letter of the chain named. Numbers in names are those of the source.

T1: PUF4 RNA-binding domain (Saccharomyces cerevisiae, UniProt P25339 537-888)
T1 sequence: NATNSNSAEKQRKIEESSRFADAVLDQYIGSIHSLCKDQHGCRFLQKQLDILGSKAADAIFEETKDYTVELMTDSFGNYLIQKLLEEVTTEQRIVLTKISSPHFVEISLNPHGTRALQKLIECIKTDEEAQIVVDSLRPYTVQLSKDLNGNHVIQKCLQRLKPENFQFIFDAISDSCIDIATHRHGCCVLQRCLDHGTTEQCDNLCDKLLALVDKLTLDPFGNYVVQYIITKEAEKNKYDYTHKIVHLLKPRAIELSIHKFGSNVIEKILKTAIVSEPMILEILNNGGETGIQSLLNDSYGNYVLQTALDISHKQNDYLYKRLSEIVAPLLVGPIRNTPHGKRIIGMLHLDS

B1: Ic_S4_P3E.1_K3.1_C3.1_H3.1_A3.1_[A6C]_F3.1_T3.1 (ssRNA)
RNA: UUUGACAACUGAUCGUUCUUUCUUGUAUCUAUUCUUUCUCGAUCAGUUGUCUUU
B2: Ib_S4_P4E.1_K4.1_C4.1_H4.1_[T3G]_[A4T]_A4.1_F4.1_T4.1 (ssRNA)
RNA: UUUGACAACUGAUCGUUCUUUCUUGGUUAUUAUUCUUUCUCGAUCAGUUGUCUUU
B3: Ia_S4_P4E.1_K4.1_C4.1_H4.1_A4.1_F4.1_[A9G]_T4.1 (ssRNA)
RNA: B2 RNA with G26U, U27A, A32G
B4: Ib_S4_P4E.1_K4.1_C4.1_H4.1_[T1G]_A4.1_[A6T]_F4.1_T4.1 (ssRNA)
RNA: B2 RNA with U24G, G26U, U27A, A29U
B5: Ib_S4_P4E.1_K4.1_C4.1_H4.1_[G2T]_A4.1_[A6C]_F4.1_T4.1 (ssRNA)
RNA: B2 RNA with G25U, G26U, U27A, A29C
B6: Ib_S4_P4E.1_K4.1_C4.1_H4.1_[A4C]_A4.1_[T7A]_F4.1_T4.1 (ssRNA)
RNA: B2 RNA with G26U, U27C, U30A
B7: Ib_S4_P4E.1_K4.1_C4.1_H4.1_[T3C]_[A4C]_A4.1_F4.1_T4.1 (ssRNA)
RNA: B2 RNA with G26C, U27C
B8: Ia_S4_P4E.1_K4.1_C4.1_H4.1_[G2C]_A4.1_F4.1_T4.1 (ssRNA)
RNA: B2 RNA with G25C, G26U, U27A
B9: Ib_S4_P4E.1_K4.1_C4.1_H4.1_[G2T]_A4.1_[T5C]_F4.1_T4.1 (ssRNA)
RNA: B2 RNA with G25U, G26U, U27A, U28C
B10: Ib_S4_P4E.1_K4.1_C4.1_H4.1_[T1G]_A4.1_[T7A]_F4.1_T4.1 (ssRNA)
RNA: B2 RNA with U24G, G26U, U27A, U30A
B11: Ib_S4_P4E.1_K4.1_C4.1_H4.1_[G2T]_A4.1_[T7A]_F4.1_T4.1 (ssRNA)
RNA: B2 RNA with G25U, G26U, U27A, U30A
B12: Ib_S4_P4E.1_K4.1_C4.1_H4.1_[T1A]_A4.1_[T5A]_F4.1_T4.1 (ssRNA)
RNA: B2 RNA with U24A, G26U, U27A, U28A
B13: Ib_S4_P4E.1_K4.1_C4.1_H4.1_[A4T]_A4.1_[T7G]_F4.1_T4.1 (ssRNA)
RNA: B2 RNA with G26U, U30G
B14: Ia_S4_P4E.1_K4.1_C4.1_H4.1_A4.1_F4.1_[T8C]_T4.1 (ssRNA)
RNA: B2 RNA with G26U, U27A, U31C
B15: Ib_S4_P4E.1_K4.1_C4.1_H4.1_[G2A]_A4.1_[T7A]_F4.1_T4.1 (ssRNA)
RNA: B2 RNA with G25A, G26U, U27A, U30A
B16: Ib_S4_P4E.1_K4.1_C4.1_H4.1_[A4T]_A4.1_[T7C]_F4.1_T4.1 (ssRNA)
RNA: B2 RNA with G26U, U30C
B17: Ib_S4_P4E.1_K4.1_C4.1_H4.1_[T3C]_A4.1_[A6T]_F4.1_T4.1 (ssRNA)
RNA: B2 RNA with G26C, U27A, A29U
B18: Ib_S4_P4E.1_K4.1_C4.1_H4.1_[G2C]_A4.1_[A6C]_F4.1_T4.1 (ssRNA)
RNA: B2 RNA with G25C, G26U, U27A, A29C
B19: Ib_S4_P4E.1_K4.1_C4.1_H4.1_[T1C]_A4.1_[T5A]_F4.1_T4.1 (ssRNA)
RNA: B2 RNA with U24C, G26U, U27A, U28A
B20: Ib_S4_P4E.1_K4.1_C4.1_H4.1_[T3C]_A4.1_[T7G]_F4.1_T4.1 (ssRNA)
RNA: B2 RNA with G26C, U27A, U30G
B21: Ib_S4_P4E.1_K4.1_C4.1_H4.1_[T1A]_A4.1_[A6C]_F4.1_T4.1 (ssRNA)
RNA: B2 RNA with U24A, G26U, U27A, A29C
B22: Ib_S4_P4E.1_K4.1_C4.1_H4.1_[T1C]_A4.1_[A6G]_F4.1_T4.1 (ssRNA)
RNA: B2 RNA with U24C, G26U, U27A, A29G
B23: Ib_S4_P4E.1_K4.1_C4.1_H4.1_[T1C]_A4.1_[A6T]_F4.1_T4.1 (ssRNA)
RNA: B2 RNA with U24C, G26U, U27A, A29U
B24: Ib_S4_P4E.1_K4.1_C4.1_H4.1_A4.1_[T5G]_[A6C]_F4.1_T4.1 (ssRNA)
RNA: B2 RNA with G26U, U27A, U28G, A29C
B25: Ib_S4_P4E.1_K4.1_C4.1_H4.1_[A4G]_A4.1_[A6G]_F4.1_T4.1 (ssRNA)
RNA: B2 RNA with G26U, U27G, A29G
B26: Ib_S4_P4E.1_K4.1_C4.1_H4.1_[A4T]_A4.1_[A6G]_F4.1_T4.1 (ssRNA)
RNA: B2 RNA with G26U, A29G
B27: Ic_S4_P4E.1_K4.1_C4.1_H4.1_A4.1_[T5C]_[T7G]_F4.1_T4.1 (ssRNA)
RNA: B2 RNA with G26U, U27A, U28C, U30G
B28: Ib_S4_P4E.1_K4.1_C4.1_H4.1_[A4C]_A4.1_[T5A]_F4.1_T4.1 (ssRNA)
RNA: B2 RNA with G26U, U27C, U28A
B29: Ib_S4_P4E.1_K4.1_C4.1_H4.1_[A4T]_A4.1_[T5A]_F4.1_T4.1 (ssRNA)
RNA: B2 RNA with G26U, U28A
B30: Ib_S4_P4E.1_K4.1_C4.1_H4.1_[A4C]_A4.1_[A6T]_F4.1_T4.1 (ssRNA)
RNA: B2 RNA with G26U, U27C, A29U
B31: Ib_S4_P4E.1_K4.1_C4.1_H4.1_[T1A]_A4.1_[A6T]_F4.1_T4.1 (ssRNA)
RNA: B2 RNA with U24A, G26U, U27A, A29U
B32: Ib_S4_P4E.1_K4.1_C4.1_H4.1_[T3C]_A4.1_[T7A]_F4.1_T4.1 (ssRNA)
RNA: B2 RNA with G26C, U27A, U30A
B33: Ib_S4_P4E.1_K4.1_C4.1_H4.1_A4.1_[T5C]_[A6T]_F4.1_T4.1 (ssRNA)
RNA: B2 RNA with G26U, U27A, U28C, A29U
B34: Ib_S4_P4E.1_K4.1_C4.1_H4.1_[A4C]_A4.1_[A6G]_F4.1_T4.1 (ssRNA)
RNA: B2 RNA with G26U, U27C, A29G
B35: Ib_S4_P4E.1_K4.1_C4.1_H4.1_[G2C]_A4.1_[T7G]_F4.1_T4.1 (ssRNA)
RNA: B2 RNA with G25C, G26U, U27A, U30G
B36: Ib_S4_P4E.1_K4.1_C4.1_H4.1_[A4C]_A4.1_[A6C]_F4.1_T4.1 (ssRNA)
RNA: B2 RNA with G26U, U27C, A29C
B37: Ib_S4_P4E.1_K4.1_C4.1_H4.1_[T3C]_A4.1_[T7C]_F4.1_T4.1 (ssRNA)
RNA: B2 RNA with G26C, U27A, U30C
B38: Ib_S4_P4E.1_K4.1_C4.1_H4.1_[A4C]_A4.1_[T7C]_F4.1_T4.1 (ssRNA)
RNA: B2 RNA with G26U, U27C, U30C
B39: Ib_S4_P4E.1_K4.1_C4.1_H4.1_[A4T]_A4.1_[A6C]_F4.1_T4.1 (ssRNA)
RNA: B2 RNA with G26U, A29C
B40: Ib_S4_P4E.1_K4.1_C4.1_H4.1_[T1G]_A4.1_[T5C]_F4.1_T4.1 (ssRNA)
RNA: B2 RNA with U24G, G26U, U27A, U28C
B41: Ib_S4_P4E.1_K4.1_C4.1_H4.1_A4.1_[T5G]_[A6T]_F4.1_T4.1 (ssRNA)
RNA: B2 RNA with G26U, U27A, U28G, A29U

The target of this series is T1, PUF4 RNA-binding domain. As to the kind of experiment: Mg; RNA-MaP; 20 mM Na-HEPES pH 7.4, 30 mM KOAc, 0.75 mM MgCl2, 0.1% Tween-20, 5% glycerol, 0.1 mg/mL BSA, 2 mM DTT; 25 C; 0.0125-409.6 nM protein. As to conditions: tags: N-His6-TEV cleaved; C-SNAP kept, Cy3B-labelled; label: tethered on chip by stalled RNA polymerase.
The molecule UCUCUUUGUCUAUAUCUCUU (ssRNA) [Ia_S1_P3E.1_K3.1_C3.1_H3.1_[A4C]_A3.1_F3.1_T3.1] yielded a Kd of 1170 nM.
For the molecule B1, the Kd turned out to be 10.1 nM.
The result for B2 reads 1280 nM; that for B3, 3.07 nM; that for B4, 971 nM.
The molecule B5 gave a Kd greater than 2300 nM.
Under B6 stands 19 nM.
Molecule B7 had a dissociation constant (Kd) of 814 nM.
Under B8 stands 227 nM; under B9, 356 nM.
The result for B10 reads 332 nM; that for B11, 1200 nM.
Under B12 stands 858 nM.
For the molecule B13, binding was put at a Kd of 30.9 nM.
The result for B14 reads 9.03 nM.
The molecule B15 displayed an equilibrium dissociation constant (Kd) of 75.2 nM.
As for B16, the affinity, expressed as Kd, was 7.04 nM.
Under B17 stands 202 nM.
Molecule B18 showed a dissociation constant (Kd) greater than 2300 nM.
The result for B19 reads 182 nM; that for B20, 434 nM.
Under B21 stands 2270 nM; under B22, 700 nM.
Under B23 stands 133 nM; under B24, 4.82 nM; under B25, 10.8 nM.
Turning to B26, the Kd amounted to 64.1 nM.
The result for B27 reads 1.45 nM; that for B28, 48.4 nM; that for B29, 13.4 nM.
The molecule B30 came in with a Kd of 29.8 nM.
Under B31 stands 1520 nM.
The result for B32 reads 215 nM; that for B33, 1.04 nM; that for B34, 191 nM.
The result for B35 reads greater than 2300 nM; that for B36, 110 nM; that for B37, 48.1 nM.
For B38, binding was characterised by a dissociation constant (Kd) of 12.9 nM.
Under B39 stands 54.8 nM; under B40, 42.9 nM.
The result for B41 reads 5.58 nM.

As a reminder, the Kd is the free concentration of one partner at which half of the binding sites on the other are occupied at equilibrium, for simple one-to-one binding.
